Laboratory results published in paper PMC4918310.

Biological target: untagged recombinant mouse TWEAK (mouse) (UniProt O54907)
Chain of UniProt O54907 (O54907 94-249): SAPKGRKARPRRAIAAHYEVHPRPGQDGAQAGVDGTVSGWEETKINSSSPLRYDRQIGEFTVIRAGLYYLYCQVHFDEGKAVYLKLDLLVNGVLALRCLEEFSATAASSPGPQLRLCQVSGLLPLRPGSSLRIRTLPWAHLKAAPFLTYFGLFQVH

- TWEAK (200 ng ml^-1)-induced canonical and non-canonical NF-kB signalling in mouse endothelial cells (MDEC), immunoblotting, with increasing doses of recombinant mouse sCD163: 50
Substance: recombinant mouse sCD163 (receptor)
